Laboratory results: the supplement of paper PMC12042874
± gives the uncertainty stated by the source.

Assay: amyloid nucleation score (Sup35N fusion, yeast selection) (log enrichment); library NNK1; higher = more nucleation; inactive = no reads after selection
Procedure, shortened: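 Nucleation score is defined as the DiMSum log enrichment of output over input reads, with centring on the mode score of non-aggregating sequences. A minimum of 100 input reads was required for each sequence. Reads came from Illumina sequencing of plasmid inserts from psi-negative yeast expressing Sup35N fused to peptides of 20 random codons, induced with 100 μM copper sulfate for 24 hours and grown 7 days at 30°C on medium lacking adenine and uracil.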

Row | Substance | amyloid nucleation score
1 | RYRSMHHFRVHDKHPMLGYA | 1.34 ± 0.84
2 | YVILFVIVVGSA | 0.654 ± 0.84
3 | IFYSLQLVTARSTEVMGDTP | 1.1 ± 0.88
4 | TIATLFIFRDLFNFECLNSH | 4.61 ± 0.1
5 | EKLKMVVGWVVPLSAHMQEY | 0.609 ± 0.84
6 | VHGGAWLTGGSRTGAQFIAV | -0.402 ± 0.59
7 | KSQGEVFRVAREGNFIIEES | -1.07 ± 1.2
8 | NFKQGNSYVCNSCLGCGVSR | 6.45 ± 0.084
9 | ELGSGFQFVYSYS | -0.465 ± 0.46
10 | ILKDVFIITVISSCSITSKL | 2.37 ± 0.18
11 | VPYRFPRMVKYGSMDFTSLE | 4.03 ± 0.094
12 | VYRSHLRTNFSTFTSMSSVL | -0.626 ± 1.4
13 | GHSDFYTTPLKLCRGE | 0.634 ± 0.72
14 | WFWYIYM | 1.54 ± 0.19
15 | VSRPQMSSTTEHSTTDYFGC | inactive
16 | FFELSVYH | -0.174 ± 0.65
17 | ARTRVLMKQVQGFKSFTILH | 0.192 ± 0.52
18 | QESVGSNRRVVGDNASLRLL | -0.211 ± 0.86
19 | NNINWVKGKHR | -1.06 ± 2.4
20 | TVVNSVGYYAPKLPSACLGN | 0.638 ± 0.31
21 | VGWGAMQGLMSGGLYIPV | -0.671 ± 2.1
22 | VVLPRLRGNLVCDEIES | 2.07 ± 0.53
23 | SMDLHMYSKFMRYSVFVCNL | 1.14 ± 0.79
24 | LSNRSKNDGKSRLIPMDDVH | inactive
25 | FTVLWCRSMLGC | -0.111 ± 0.4

Row | Substance | amyloid nucleation score
26 | RMRRLCVSEGRDLSGECCYM | 0.544 ± 0.3
27 | FGTLGK | 1.88 ± 0.38
28 | YSLMLFESVSSGFKCSLRFA | -0.65 ± 0.42
29 | CFNMFT | -0.607 ± 0.76
30 | SMAPGDSS | 0.02 ± 0.34
31 | GIAAYNGDLWMRLCYL | -0.255 ± 0.88
32 | TRYGVYQYVVDSLINCHLLE | -0.186 ± 0.52
33 | LGQEL | 0.416 ± 0.39
34 | HSGSAE | -1.28 ± 1.3
35 | NFVQLAWLVRWAWEV | -0.088 ± 0.56
36 | WCYFVRDGVGVGEVTCPRQR | 0.273 ± 0.54
37 | CPVMA | -0.094 ± 0.27
38 | PFQRGIYHWLYILGLVVELP | inactive
39 | GWIGCHDWGLRLIAHKMRGR | 0.938 ± 0.88
40 | FGKGNEGTIGNI | -0.22 ± 0.76
41 | GRHRRSRRM | inactive
42 | TVAGLT | -0.224 ± 0.71
43 | VNRGVVVRITWIAKHYCMSE | 0.26 ± 0.38
44 | LWPDTDPIGGE | -0.74 ± 1.1
45 | ALSPRVSSLGNFT | -0.691 ± 0.53
46 | DIRMVDWVRNRVQHVADGK | -0.892 ± 0.7
47 | ANQRSAGYPSGYKCTYYNRS | 0.838 ± 0.41
48 | VRSCTWCGSEGPGTIPWLGD | 0.443 ± 0.39
49 | SGHRFCAVRSRATGERFYGW | inactive
50 | FEGNQDIYMVRTWKDKMRLV | -0.107 ± 0.45

Row | Substance | amyloid nucleation score
51 | CFPMIQMEHSIKS | -0.449 ± 1.1
52 | LLLTHNLVNADDSVDSMQHK | 0.086 ± 0.24
53 | LNRHYFCVGIPYGPYSQRYL | 0.51 ± 0.75
54 | FRSAKAIMLEVN | 0.048 ± 0.41
55 | LMTPEKVNEGATDRLRLFRN | -0.323 ± 0.68
56 | EKGFVYYTRGYLRDGLGRSQ | -0.222 ± 0.35
57 | IINRNYI | 1.1 ± 0.84
58 | VVVEKLAQLNHVKAEPMVSG | 0.335 ± 0.57
59 | TARRKSYDIFMLIMWFVAYY | 2.53 ± 0.12
60 | KFFFKSSNDVIKGVHNRTIR | -0.404 ± 0.49
61 | TCIARHLQILSVNRCCVRFA | 0.062 ± 0.44
62 | CVDRNG | -0.362 ± 0.39
63 | ITLVDVVG | 0.082 ± 0.34
64 | LAYGWKFDNSCLL | 1.29 ± 0.68
65 | VNIRVRD | 0.023 ± 0.33
66 | TSTVVFFKFYLTKFWISVPT | 1.28 ± 0.36
67 | HSTLFGSKFWGKTQHNFDS | -0.151 ± 1.1
68 | GLPLNA | inactive
69 | LVLGSSLWAGCCDQPHGWQV | -0.211 ± 0.54
70 | FMSYLNYRQCPPVLDEEVVP | 0.241 ± 1
71 | TKHRELVLPGLVFTTEYCLV | -0.693 ± 1.6
72 | TSYPSYVDFW | 0.209 ± 0.58
73 | NSFWTLVFSGHPACWLTVFI | -0.75 ± 0.59
74 | RWYSHFSAMQWGATLCFWGL | 2.64 ± 0.11
75 | NSFVYQWFGYVSFKLFRCTV | 0.316 ± 0.26

Row | Substance | amyloid nucleation score
76 | MGTRILSRTFVVYTTPGYCW | 0.093 ± 0.27
77 | VVNWIASMGCIFYRVPNVSG | 4.66 ± 0.13
78 | SKSRMLPIGTRGCRNSQFVE | 1.06 ± 0.63
79 | CSSDFYYLAELNLPFN | 0.917 ± 0.43
80 | NVWNVFWLNN | inactive
81 | IQNISLGVVGVMWNPHTCVV | -0.708 ± 0.66
82 | EPGSLTESKSFYFLSCPTTR | 0.808 ± 0.7
83 | TYANGGALALAIVAVKC | -0.398 ± 0.64
84 | RFRVCCNRSKRGGYGPNVER | -0.363 ± 0.67
85 | RRIFRYSMNNLNVFVYNRFP | -0.277 ± 0.51
86 | TDLMLYYCYSAVPCWDFPAS | 0.073 ± 1
87 | GHNINFGVDCGTVGRFCNTW | -0.54 ± 0.61
88 | QVRRRVGILRLWFEKWVIGR | 0.372 ± 0.77
89 | EVRRFMTPGENESSREVAYF | -0.02 ± 0.45
90 | ANFFICFLHLVCTKIQSSLL | 1.77 ± 0.52
91 | HVCEGEVVR | -0.135 ± 0.37
92 | FFRRNHGYNI | 0.092 ± 0.43
93 | SRLSQDPRTSSAIMSWLRYS | 0.886 ± 1.1
94 | WQTSSNGLSLKATCLTYKSF | 0.016 ± 1.7
95 | SYRSYGSSSCSVWRTAAGDQ | 2.9 ± 0.084
96 | SLVMGVYRRQCRGNPRAMSK | 1.21 ± 0.44
97 | YEALQ | -0.703 ± 1
98 | DNVFEALAL | inactive
99 | GFSVLCRSRPQGSTGVQIRV | -0.788 ± 0.86
100 | NLPLLFL | -0.069 ± 0.27

Row | Substance | amyloid nucleation score
101 | RLTVSGVTLGSVTHAFCGAP | 0.267 ± 0.67
102 | CFPRSRRRQRSFNLCVRESR | 1.13 ± 0.57
103 | VNGQYMRSHWFGDTTLLPIC | -0.316 ± 0.24
104 | ATLLFRFV | 0.831 ± 0.64
105 | NMVLRFQCLWFCFISIPF | 3.16 ± 0.14
106 | KNTCKQMV | 0.242 ± 0.57
107 | HALEKLDKFRFTAS | 0.484 ± 0.64
108 | YLLSCVGIASLGFKVFL | -0.718 ± 0.7
109 | YQRSTWSSWNQVRYYHEFQR | 1.59 ± 0.3
110 | KWEYCCLFMLAHVEDHLKGF | 0.59 ± 0.34
111 | ARVNVWAVGWSENNSNLKI | 0.916 ± 0.24
112 | LLWEPRKFFESNWLSIQSAK | -0.668 ± 1.7
113 | IRMVFAMVSYSCDYRATAGT | 2.65 ± 0.18
114 | VMYLSGCHLRLKCYLGSFNR | 5.51 ± 0.076
115 | FNYLICAVDSRTLNSW | 4.7 ± 0.05
116 | GLLRAA | 0.296 ± 0.27
117 | TLNVFDH | -0.421 ± 0.4
118 | CHSINLGLNPFKYVNLPNGH | 2.38 ± 0.15
119 | NSCTGSGGCSWEDKGNWCVK | 0.183 ± 0.28
120 | ILYVNNFIFLH | 7.59 ± 0.056
121 | LIRNKIRR | -1.12 ± 0.93
122 | RGNANIVEDSLFVVIGGRKV | 4.25 ± 0.074
123 | ICSRTVKFYSSSF | -2.03 ± 2.4
124 | TLESCGW | 0.773 ± 0.22
125 | AGLRVYKIKSFRLEDSVNAG | 1.49 ± 0.71

Row | Substance | amyloid nucleation score
126 | PGKICSNDQVNVSAY | -0.179 ± 0.49
127 | SWSSGGNFARFIQYVPATHA | 0.117 ± 0.72
128 | SVLCELRV | -0.182 ± 0.36
129 | VCLQW | 0.386 ± 0.64
130 | MLLACPHLTGYGVILIASIA | -0.292 ± 0.36
131 | ATGTSWYVPGRVGLCGYWLI | -0.153 ± 0.23
132 | SNLLPLYP | 0.263 ± 1.1
133 | MLQFFVSWGILVKICVWTVG | inactive
134 | SFKRYRRYRSKRVRRIGRGR | 0.677 ± 0.52
135 | LYCRNRCRACCKRFTFK | inactive
136 | YGRQG | 0.123 ± 0.49
137 | DDLLH | 0.387 ± 0.79
138 | FMFYTYHVNSYFSILCSVSN | 0.655 ± 0.46
139 | EMTRLLNSCIKYQYSRQRYA | -0.97 ± 1.2
140 | SSGFYLWCALYRSRGHCNDY | 1.6 ± 0.18
141 | RDFRYCFRCVIINMHRDHFQ | 3.99 ± 0.06
142 | GLYLNGPVINMWVVVASREV | 7.512 ± 0.044
143 | ILMLKH | -0.484 ± 0.68
144 | GRMAGMFWNCGGCMEMDSVC | 1.14 ± 0.68
145 | RVNTETMITGESGMSIDELM | 1.03 ± 0.76
146 | LDRSTSSLIMSSCLMYRESS | 1.33 ± 0.29
147 | RYAWVTMVVYACLQLGSASR | 0.678 ± 0.21
148 | ILWLFSGAWLYYSVLYCL | -0.076 ± 0.51
149 | TGWEVV | -1.16 ± 0.75
150 | DVAARVQKNCPVIIGAIRSK | 0.091 ± 1.6

Row | Substance | amyloid nucleation score
151 | SRLATQTRLKMAGSISLFRS | -0.208 ± 1.2
152 | VSGLRRSRSWWAFDVQSLLR | 0.544 ± 0.55
153 | VYCFCQNRSSFYGKMHLGMH | 1.25 ± 0.62
154 | TLRVVMKWLAHTWFRHTLMR | -0.083 ± 0.42
155 | IYASSLTDGFTVVWCLNQY | 5.05 ± 0.07
156 | KRLWLKLSTVE | 0.32 ± 0.32
157 | HGSVRSLSYRLVSLYLSRMC | 0.748 ± 0.45
158 | DSLVGVARDSMTSKQHNKNE | -0.112 ± 0.69
159 | NWHPISVGSFYIVGLMRHRR | 4.03 ± 0.11
160 | SKICLMSIYHLQLDPFIGMP | 3.03 ± 0.17
161 | YFSVHF | 2.29 ± 0.15
162 | TAYWIVYRVKGLLRFFSRLA | 0.011 ± 0.36
163 | QYLLFGYNYNAWERRDLALW | 0.354 ± 0.22
164 | VAFMDLTMRLDWGNFSNR | 4.34 ± 0.056
165 | LMLTARPVMFVLLCWWFRSS | 0.246 ± 0.43
166 | SGYLRKRYTRRDC | inactive
167 | VWTYNLI | inactive
168 | FSFLHLVGRWGLIVSNCSDV | -0.355 ± 0.64
169 | TSTRRHYRVFARAQQEQNSP | 0.869 ± 0.49
170 | HSRSCKSFLI | inactive
171 | VGCLMWYALCGLE | 0.347 ± 0.5
172 | GATIIKSFLDRNSTTWLSLV | -0.451 ± 0.63
173 | VGCSRIDDPRSGAEALRSYC | 1.08 ± 0.78
